Source: IntAct's records for PubMed 15105431

B1: T-cell surface antigen CD2 (Homo sapiens), P06729 (parent)
chain: MSFPCKFVASFLLIFNVSSKGAVSKEITNALETWGALGQDINLDIPSFQMSDDIDDIKWEKTSDKKKIAQFRKEKETFKEKDTYKLFKNGTLKIKHLKTDDQDIYKVSIYDTKGKNVLEKIFDLKIQERVSKPKISWTCINTTLTCEVMNGTDPELNLYQDGKHLKLSQRVITHKWTTSLSAKFKCTAGNKVSKESSVEPVSCPEKGLDIYLIIGICGGGSLLMVFVALLVFYITKRKKQRSRRNDEELETRAHRVATEERGRKPHQIPASTPQNPATSQHPPPPPGHRSQAPSHRPPPPGHRVQHQPQKRPPAPSGTQVHQQKGPPLPRPRVQPKPPHGAAENSLSPSSN
partner: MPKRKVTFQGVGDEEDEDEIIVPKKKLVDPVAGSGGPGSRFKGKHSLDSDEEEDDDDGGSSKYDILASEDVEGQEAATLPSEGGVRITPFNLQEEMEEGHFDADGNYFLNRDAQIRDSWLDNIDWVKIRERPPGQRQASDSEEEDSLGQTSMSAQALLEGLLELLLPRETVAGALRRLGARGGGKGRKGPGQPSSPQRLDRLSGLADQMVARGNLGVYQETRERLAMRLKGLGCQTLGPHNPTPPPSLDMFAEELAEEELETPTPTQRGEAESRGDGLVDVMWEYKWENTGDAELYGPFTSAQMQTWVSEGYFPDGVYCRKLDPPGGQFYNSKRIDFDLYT

Variants of: B1
Conditions: with cd2b2_human CD2BP2, O95400

Effect of a mutation on the interaction of substitutions, site by site:
H302: E decreasing interaction strength
V304: E decreasing interaction strength; C decreasing interaction strength; D decreasing interaction strength; W decreasing interaction strength
R303: G disrupting interaction strength; P decreasing interaction strength; M decreasing interaction strength; I decreasing interaction strength; T disrupting interaction strength; N decreasing interaction strength; L decreasing interaction strength; A disrupting interaction strength; D disrupting interaction strength; H decreasing interaction strength; V disrupting interaction strength; E disrupting interaction strength; W disrupting interaction strength; F decreasing interaction strength; C disrupting interaction strength; Y disrupting interaction strength; Q decreasing interaction strength; S disrupting interaction strength
